# Laboratory results reported in the RNAGym collection of RNA variant scans (doi:10.1073/pnas.2313332121).
# B1: TPR t1 (parent)
# chain: GACCAAUCUGCCCUCAGAGCUCGAGAACAUCUUCGGAUGCAGAGGAGGCAGGCUUCGGUGGCGCGAUAGCGCCAACGUCCUCAACCUCCAAUGCAUCCCACCACAUGAUGAUGCCUGAAGAGCCUUGGUUUUUUG
# Variants of: B1
# Assay: polymerase ribozyme fitness, log enrichment relative to wild type (log ratio); higher = more active; in vitro selection for triplet polymerase activity
# In short: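 Fitness compares each genotype's enrichment to that of the wild type on a logarithmic scale, averaging replicates with inverse-variance weights. The logarithm is base 2. Enrichment came from Illumina sequencing of input and output libraries after one triplicate round of in vitro selection, which included frozen incubation at −7 °C, of PCR-built, transcribed mutant libraries of each subunit of a heterodimeric triplet polymerase ribozyme. Only genotypes with ≥10 input reads and ≥1 read per output were kept.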
row,Variant,polymerase ribozyme fitness (log ratio)
1,GACCAAUCUGCCCUCAGAGCUCGAGAACAUCUUCGGGUGCAGAGGAGGCAGGCUUCGGUGGCGCGAUAGCGCCAACGUCCUCAACCUCCAAUGCAUCCCACCACAUGAUGAUGCCUGAAAAGCCUUGGUUUUUUG [A37G G120A],0.248
2,GACCAAUCUGCCCUCAGAGCUCGAGAACAUCUUCGGGUGCAGAGGAGGCAGGCUUCGGUGACGCGAUAGCGCCAACGUCCUCAACCUCCAAUGCAUCCCAACACAUGAUGAUGCCUGAAGAGCCUUAGUUUUUUG [A37G G61A C101A G127A],-1.91
3,GACCAAUCUGCCCUCAGAGCUCGAGAACAUCUUCGGGUGCAGAGGAGGCAGGCUUCGGUGGCGCGAUAUCGCCAACGUCCUCAACCUCGAAUGCAUCCCACCACAUGAUGAUGCCUGAAGAGCCUUGGUUUUUUG [A37G G69U C89G],-2.64
4,GACCAAUCUGCCCUCAGAGCUCGAGAACAUCUUCGGGUGCAGAGGAGGCAGGCUUCGGUGGCGCGAUAGCGCCAACGUCCUCAACCUCCAAUGCAUCCCACCACAUGAGGAUGCCUGAAGAGCCUUGGUUUUUUG [A37G U109G],-5.43
5,GACCAAUCUGCCCUCAGAGCUCGAGAACAUCUUCGGGUGCAGAGGAGGCAGCCUUCGGUGGCGCGAUAGCGCCAACGUCCUCAACCUCCAAUGCAUCCCCCCAUAUGAUGAUGCCUGAAGAGCCUUGGUUUUUUG [A37G G52C A100C C104U],-2.8
6,GACCAAUCUGCCCUCAGAGCUCGAGAACAUCUUCGGGUGCAGAGGAGGCAGGCUGCGGUGGCGCGAUAGCGCCAACGUCCUCAACCUUCAAUGCAUCCCACCACCUGAUGAUGCCUGAACAGCCCUGGUUUUUUG [A37G U55G C88U A105C G120C U125C],-1.81
7,GACCAAUCUGCCCUCAGAGCUCGAGAACAUCUUCGGGUGCAGAGGAGGCAGGCUGCGGUGGCGCGAUAGCGACAACGUCCUCAACCUCCAAUGCAUCCCACCACAUGAUGAUGCCUGAAGAGCCUUGGAUUUUUG [A37G U55G C72A U129A],-1.52
8,GACCAAUCUGCCCUCAGAGCUCGAGAACAUCUUCGGGUGCAGAGGAGGCACGCUUCGGUGGCGCGAUAGCGCCAACCUCAUCAACCUCCAAUGCAUCCCACCACAUGAUGAUGCCUGAACAGCCUUGCUUUUUUG [A37G G51C G77C C80A G120C G128C],-5.93
9,GACCAAUCUGCCCUCAGAGCUCGAGAACAUCUUCGGUUGCAGAGGAGGCAGGCUUCGGUGGCGCGCUAGCGCCAAUGUCCUCAACCUCCAAUGCAUCCCACCACAUGAUGAUGCCUGAAGAGCCUUGGUUUUUUG [A37U A66C C76U],-2.83
10,GACCAAUCUGCCCUCAGAGCUCGAGAACAUCUUCGGGUGCAGAGGAGGCAGGCUUCGGUGGCGCGAUAGCGCCAACGUCCUCAACCUCCAAUGCAUCCCACCACAUGAUGAUGCCUGAAGAGCCUUGGUUGUUUG [A37G U131G],-1.11
11,GACCAAUCUGCCCUCAGAGCUCGAGAACAUCUUCGGGUGCAGAGGAGACAGGCUUGGGUGGCGCGAUAGCGCCAACGUCCUCAACCUCCAAUACAUCCCACCACAUGAUCAUGCCUGAAGAGCCUUGGUUUUUUG [A37G G48A C56G G93A G110C],-5.64
12,GACCAAUCUGCCCUCAGAGCUCGAGAACAUCUUCGGUUGCAGAGGAGGCCGGCUUCGGUGACGCGAUAGCGCCAACGUCCUCAACCUCCAAUGCAUCCCACCACAUGAUGAUGCCUCAAGAGCCUUGGUCUUUUG [A37U A50C G61A G117C U130C],-4.59
13,GACCAAUCUGCCCUCAGAGCUCGAGAACAUCUUCGGUUGCAGAGGAGGCAGGCUUCGGUGGCGCGAUAGCGCCGACGUCCUCAACCUCCCAUGCAUCCCACCACAUGAUGAUGCCUGAAGAGCCUUGGUUUUUUG [A37U A74G A90C],-2.26
14,GACCAAUCUGCCCUCAGAGCUCGAGAACAUCUUCGGUUGCUGAGGAGGCAGGCUUCGGUGGCGCGAUAGCGCCAACGUGCUCAACCUCCAAUGCAUCCCACCACAUGAUGAUGCCUGAAGAGCCUUGGUUUUUUG [A37U A41U C79G],-4.3
15,GACCAAUCUGCCCUCAGAGCUCGAGAACAUCUUCGGUUGCAGGGGAGGCCGUCUUCGGUGGCGCGAUAGCGCCAACGUCCUCAACCUCCAAUGCAUCCCACCACAUGAUAAUGCCUGAAGAGCCUUGGUUUUUUG [A37U A43G A50C G52U G110A],-5.79
16,GACCAAUCUGCCCUCAGAGCUCGAGAACAUCUUCGGUUGCAGAGGAGGCAGGCUUCGGUGGCGCGAUAGCGCCUACGUCCUCAACCUCCAAUGCAUCCCACCACAUGAUGAUGCCUGAAGCGCCUUGGUUUUUUG [A37U A74U A121C],1.55
17,GACCAAUCUGCCCUCAGAGCUCGAGAACAUCUUCGGUUGCAGAGGAGGCUGGCUUCGGUGGCUCGAUAGCGCCAACGUCCUCAACCUCCAAUGCAUCCCACCACAUGAUGAUGCCUGAAUAGCCUAGGUAUUUUG [A37U A50U G63U G120U U126A U130A],-5.22
18,GACCAAUCUGCCCUCAGAGCUCGAGAACAUCUUCGGUUGCGGAGGAGGCAGGCUUCGGUGGCGCGAUAGCGCCAACGUCCUCAACCUCCAAUGCAUCCCACCACAUGAUGAUGCCUGAAGAGCCUUGGUUUUUUG [A37U A41G],-0.165
19,GACCAAUCUGCCCUCAGAGCUCGAGAACAUCUUCGGUUGCAGGGGAGGCAGGCUUCGGUGGCGCGAUAGCGCCAACGUCCUCAACGUCCAAUGCAUCCCACCACAUGAUGAUGCCUGAAGAGCCUUGGUUUUUUG [A37U A43G C86G],-2.33
20,GACCAAUCUGCCCUCAGAGCUCGAGAACAUCUUCGGGGGCAGAGGAGGCAGGCUUCGGUGUCGCGAUAGCGCCAACGUCCUCAACCUCCAAUGCAUCCCACCAUAUGAUGAUGCCUGAAGAGCGUUGGUUUUUUG [A37G U38G G61U C104U C124G],-4.81
21,GACCAAUCUGCCCUCAGAGCUCGAGAACAUCUUCGGGUGCAGAGGAGGCAGGCUUCGGCGGCGCGAUAGCGCCAACGUCCUCAACCUCCAAUGCAUCCCACCUCAUGAUCAUGCCUGAAGAACCUUGGUUUUUUG [A37G U59C A103U G110C G122A],-6.29
